We go through 29 molecules from US20250092108A1 (published 2025).

The chains are these.
B1: 14192 R38E T41K C125S (protein)
chain: APTSSSTKKTQLQLEHLLLDLQMILNGINNYKNPKLTEMLKFKFYMPKKATELKHLQCLEEELKPLEEVLNLAQSKNFHLRPRDLISNINVIVLELKGSETTFMCEYADETATIVEFLNRWITFSQSIISTLT
B2: XENP14206 (T41E F42Y C125S) (protein)
chain: B1 chain with E38R, K41E, F42Y
B3: 14206 T41E F42Y C125S (protein)
chain: B1 chain with E38R, K41E, F42Y
B4: XENP14207 (T41D F42Y C125S) (protein)
chain: B1 chain with E38R, K41D, F42Y
B5: XENP14213 (R38Q F42Y C125S) (protein)
chain: B1 chain with E38Q, K41T, F42Y
B6: 14194 R38N T41Q C125S (protein)
chain: B1 chain with E38N, K41Q
B7: 14202 R38Q T41S C125S (protein)
chain: B1 chain with E38Q, K41S
B8: XENP14216 (R38V T41R C125S) (protein)
chain: B1 chain with E38V, K41R
B9: 14213 R38Q F42Y C125S (protein)
chain: B1 chain with E38Q, K41T, F42Y
B10: 14191 R38Q T41Q C125S (protein)
chain: B1 chain with E38Q, K41Q
B11: 14208 T41M F42Y C125S (protein)
chain: B1 chain with E38R, K41M, F42Y
B12: 14215 R38N T41K C125S (protein)
chain: B1 chain with E38N
B13: 14193 R38Q T41R C125S (protein)
chain: B1 chain with E38Q, K41R
B14: 14216 R38V T41R C125S (protein)
chain: B1 chain with E38V, K41R
B15: 14209 T41Q F42Y C125S (protein)
chain: B1 chain with E38R, K41Q, F42Y
B16: 14217 R38P T41R C125S (protein)
chain: B1 chain with E38P, K41R
B17: 14190 R38Q T41K C125S (protein)
chain: B1 chain with E38Q
B18: XENP14208 (T41M F42Y C125S) (protein)
chain: B1 chain with E38R, K41M, F42Y
B19: XENP14217 (R38P T41R C125S) (protein)
chain: B1 chain with E38P, K41R
B20: 14214 R38N T41R C125S (protein)
chain: B1 chain with E38N, K41R
B21: XENP14209 (T41Q F42Y C125S) (protein)
chain: B1 chain with E38R, K41Q, F42Y
B22: XENP14214 (R38N T41R C125S) (protein)
chain: B1 chain with E38N, K41R
B23: 14207 T41D F42Y C125S (protein)
chain: B1 chain with E38R, K41D, F42Y
B24: XENP14277 (prior art IL-2 variant, mutant 2-4 with Q126T as described in WO 2009/061853, without R38L) (ligand)
chain: APTSSSTKKTQLQLEHLLLDLQMILNGISNHKNPRLARMLTFKFYMPEKATELKHLQCLEEELKPLEEALRLAPSKNFHLRPRDLISDVNVIVLELKGSETTFMCEYADETATIVEFLNRWITFSTSIISTLTHHHHHHHH
B25: XENP14381 (prior art IL-2 variant, mutant 2-4 with Q126T, with R38L) (ligand)
chain: B24 chain with R38L
B26: CD25 (receptor)
chain: ELCDDDPPEIPHATFKAMAYKEGTMLNCECKRGFRRIKSGSLYMLCTGNSSHSSWDNQCQCTSSATRNTTKQVTPQPEEQKERKTTEMQSPMQPVDQASLPGHCREPPPWENEATERIYHFVVGQMVYYQCVQGYRALHRGPAESVCKMTHGKTRWTQPQLICTGEMETSQFPGEEKPQASPEGRPESETSC
B27: XENP26109 (Fc fusion)
chain 1: EPKSSDKTHTCPPCPAPPVAGPSVFLFPPKPKDTLMISRTPEVTCVVVDVKHEDPEVKFNWYVDGVEVHNAKTKPREEEYNSTYRVVSVLTVLHQDWLNGKEYKCKVSNKALPAPIEKTISKAKGQPREPQVYTLPPSREEMTKNQVSLTCDVSGFYPSDIAVEWESDGQPENNYKTTPPVLDSDGSFFLYSKLTVDKSRWEQGDVFSCSVMHEALHNHYTQKSLSLSPGK
chain 2: APASSSTKKTQLQLEHLLLNLQMILNGINNYKNPKLTRMLTFKFYMPKKATELKHLQCLEEELKPLEEVLKLAQSKNFHLRPRDLISNINVIVLELKGSETTFMCEYADETATIVEFLNRWITFSQSIISTLTEPKSSDKTHTCPPCPAPPVAGPSVFLFPPKPKDTLMISRTPEVTCVVVDVKHEDPEVKFNWYVDGVEVHNAKTKPREEQYNSTYRVVSVLTVLHQDWLNGKEYKCKVSNKALPAPIEKTISKAKGQPREPQVYTLPPSREQMTKNQVKLTCLVKGFYPSDIAVEWESNGQPENNYKTTPPVLDSDGSFFLYSKLTVDKSRWQQGNVFSCSVMHEALHNHYTQKSLSLSPGK
B28: XENP26105 (Fc fusion)
chain 1: B27 chain 1
chain 2: B27 chain 2 with T37R, K71N
B29: 24638 (Fc fusion)
chain: APTSSSTKKTQLQLEHLLLDLQMILNGISNHKNPRLARMLTFKFYMPEKATELKHLQCLEEELKPLEEALRLAPSKNFHLRPRDLISDVNVIVLELKGSETTFMCEYADETATIVEFLNRWITFSQSIISTLT

The target in assay [1] is T1, human CD25 (IL-2Rα) (human, UniProt P01589 22-213).
T1 chain: B26 chain
Put plainly: Biacore; pH 7.4.

The target of assay [2] is T1, human CD25 (IL-2Rα). The assay can be described thus: Biacore; pH 6.0.
The target of assay [3] is T1, human CD25 (IL-2Rα). Put plainly: Biacore; pH 6.0.
Assay [4] deals with T1, human CD25 (IL-2Rα). The assay can be described thus: Biacore; pH 7.4.
Assay [5] deals with T1, human CD25 (IL-2Rα). Put plainly: Biacore; pH 6.0.
Assay [6] addresses T1, human CD25 (IL-2Rα). Put plainly: Biacore; pH 7.4.
In the next assay the target is 24640. Put plainly: Octet.
The next assay concerns the target 24639. The assay can be described thus: Octet.
For the next assay, the target named is 24729. Put plainly: Octet.
Another assay deals with 24641. The assay can be described thus: Octet.
Another assay deals with 24636. Put plainly: Octet.
A further assay has as its target 24732. The assay can be described thus: Octet.
In the next assay the target is 24725. Put plainly: Octet.
Another assay concerns the target 24643. The assay can be described thus: Octet.
A further assay deals with 24728. The assay can be described thus: Octet.
The target of another assay is XENP26104. Put plainly: Octet.
The target in another assay is XENP26088. The assay can be described thus: Octet.
Another assay has as its target XENP26086. Put plainly: Octet.
In another assay the target is XENP26093. Put plainly: Octet.
In another assay the target is XENP26089. Put plainly: Octet.
The target of the next assay is XENP26108. Put plainly: Octet.
In another assay the target is XENP26092. The assay can be described thus: Octet.
The target in the next assay is XENP26096. Put plainly: Octet.
The target in assay [7] is T1, human CD25 (IL-2Rα). The assay can be described thus: Octet.
Assay [8] has as its target CD122:CD132. The assay can be described thus: Octet.
For assay [9], the target named is CD122:CD132. Put plainly: Octet. This is another data set of the same source.
For the assay “CD25”, the target named is B26. The assay can be described thus: Octet.

Substitutions are numbered along the chain they refer to. In names and notes the source's numbering stands. Read-outs that look alike come from different tables or passages of the source.

On to B1, for which the figures for the Kd with human CD25 (IL-2Rα) [1] and with human CD25 (IL-2Rα) [2] were 0.172 µM and 0.0311 µM, respectively. On to B2, for which, in the assay with human CD25 (IL-2Rα) [3], the affinity, expressed as Kd, was 30.3 µM.

In the assay with human CD25 (IL-2Rα) [4], B3 came in with a Kd of 0.28 µM.

The molecule B4 showed a Kd with human CD25 (IL-2Rα) [3] of 0.319 µM. Same read-out and setting: the value for B5 was 2.43 µM. B6 had a Kd in the assay with human CD25 (IL-2Rα) [2] of 0.0846 µM. Turning to B7, the Kd with human CD25 (IL-2Rα) [1] is 1.24 µM; with human CD25 (IL-2Rα) [2], 1.71 µM. In turn, B8 came in with a Kd with human CD25 (IL-2Rα) [3] of 0.128 µM.

In the assay with human CD25 (IL-2Rα) [4], B9 had a Kd of 1.11 µM. For B10, the Kd with human CD25 (IL-2Rα) [1] is 0.196 µM; in the assay with human CD25 (IL-2Rα) [2], 2.47 µM. As for B11, binding in the assay with human CD25 (IL-2Rα) [4] was characterised by a dissociation constant (Kd) of 0.081 µM. Still for that read-out and setting: the result for B12 reads 0.0754 µM. On to B13, for which the results for the Kd in the assay with human CD25 (IL-2Rα) [1] and in the assay with human CD25 (IL-2Rα) [2] were 0.458 µM and 0.533 µM, respectively. Molecule B14 came in with a Kd with human CD25 (IL-2Rα) [4] of 0.214 µM. On the same count and under the same terms, the value for B15 was 5.95 µM; that for B16 was 0.326 µM. For B17, the Kd was 0.0983 µM with human CD25 (IL-2Rα) [1] and 0.489 µM with human CD25 (IL-2Rα) [2]. Molecule B18 displayed a Kd with human CD25 (IL-2Rα) [3] of 0.083 µM. Still for that read-out and setting: the result for B19 reads 1.71 µM. Take B20: in the assay with human CD25 (IL-2Rα) [4], binding was characterised by a dissociation constant (Kd) of 0.149 µM.

With B21, the Kd with human CD25 (IL-2Rα) [3] came out at 2.63 µM. Still for that read-out and setting: the value for B22 was 57.2 µM.

Regarding B23, in the assay with human CD25 (IL-2Rα) [4], binding was characterised by a dissociation constant (Kd) of 0.139 µM. In the case of B24, the Kd amounted to 0.19 µM with human CD25 (IL-2Rα) [5] and 0.002 µM with human CD25 (IL-2Rα) [6]. The matching figures for B25: 0.0168 µM and 0.0094 µM. Regarding B26, the Kd was 0.00114 µM with 24640; 0.00804 µM with 24639; 0.0255 µM with 24729; 0.0127 µM in the assay with 24641; 0.0145 µM with 24636; 0.0912 µM in the assay with 24732. The Kd was determined as 0.0196 µM in the assay with 24725; 0.0266 µM with 24643; 0.0418 µM with 24728; 0.0147 µM in the assay with XENP26104; 0.0166 µM with XENP26088; 0.0169 µM with XENP26086. Besides, the Kd with XENP26093 came to 0.0213 µM; with XENP26089, 0.0144 µM; in the assay with XENP26108 it was 0.0277 µM; with XENP26092, 0.0264 µM; with XENP26096, 0.0392 µM. As to B27, the Kd is 0.0285 µM with human CD25 (IL-2Rα) [7] and 0.0573 µM in the assay with CD122:CD132 [8]. On the same counts, the results for B28 are 0.0141 µM and 0.0364 µM. Regarding B29, the results for the Kd in the assay with CD122:CD132 [9] and with CD25 were 0.146 µM and 0.00133 µM, respectively.
